These results are taken from PMC4169044.

The experiment concerns the target 55S mitochondrial ribosome from pig liver mitochondria (pig (endogenous in pig liver mitochondria)). Description: Western blotting of purified ribosomes against a protein standard; amount of integrated ICT1 on purified pig 55S ribosomes estimated with purified ICT1 as a standard.

As to “55S-integrated ICT1 of the pig mitoribosome (mitochondrial ribosomal protein L58) (natural protein)”, the stoichiometry N (ICT1 per 55S ribosome) was 1.
